Where a chain is given by its changes, count along the chain named. Numbers in names are those of the source.

The labels stand for the following.
T1: Human neutrophil elastase (Homo sapiens, UniProt P08246)
T1 construct: purchased CALBIOCHEM
T1 sequence (P08246 30-267): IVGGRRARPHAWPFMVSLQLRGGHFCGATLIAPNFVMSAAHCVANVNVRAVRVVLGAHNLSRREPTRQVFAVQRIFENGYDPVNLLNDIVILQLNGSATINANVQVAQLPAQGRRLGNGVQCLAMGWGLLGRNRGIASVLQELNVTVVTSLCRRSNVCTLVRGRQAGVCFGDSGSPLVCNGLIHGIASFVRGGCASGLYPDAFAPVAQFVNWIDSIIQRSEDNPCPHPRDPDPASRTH

B1: R11Q/Q19K/Y46D: formula 1 sequence with Gln for position 7 Arg, Lys for position 15 Gln, Asp for position 42 Tyr; SEQ. I.D. NO. 37 (protein)
chain: AACNLPIVQGPCRAFIKLWAFDAVKGKCVLFPYGGCQGNGNKFDSEKECREYCGVPGDGDEELLRFSN
B2: R11L/Q19K/Y46D: formula 1 sequence with Leu for position 7 Arg, Lys for position 15 Gln, Asp for position 42 Tyr; SEQ. I.D. NO. 39 (protein)
chain: B1 chain with Q9L
B3: R11N/Q19K/Y46D: formula 1 sequence with Asn for position 7 Arg, Lys for position 15 Gln, Asp for position 42 Tyr; SEQ. I.D. NO. 41 (protein)
chain: B1 chain with Q9N
B4: R11D/Q19K/Y46D: formula 1 sequence with Asp for position 7 Arg, Lys for position 15 Gln, Asp for position 42 Tyr; SEQ. I.D. NO. 38 (protein)
chain: B1 chain with Q9D
B5: R11S/Q19K/Y46D: formula 1 sequence with Ser for position 7 Arg, Lys for position 15 Gln, Asp for position 42 Tyr; SEQ. I.D. NO. 42 (protein)
chain: B1 chain with Q9S
B6: R11A/Q19K/Y46D: formula 1 sequence with Ala for position 7 Arg, Lys for position 15 Gln, Asp for position 42 Tyr; SEQ. I.D. NO. 43 (protein)
chain: B1 chain with Q9A
B7: R11E/Q19K/Y46E: formula 1 sequence with Glu for position 7 Arg, Lys for position 15 Gln, Glu for position 42 Tyr; SEQ. I.D. NO. 40 (protein)
chain: B1 chain with Q9E, D44E

The first assay deals with T1, Human neutrophil elastase. The experiment in a line: Human elastase-inhibiting activity (substrate STANA). The assay is classed as biochemical. As to conditions: relative to Q19K/Y46D. As to the method:
The purified polypeptide of the present invention was dissolved in 100 μl of distilled water. The concentration of this solution was determined based on its bovine trypsin-inhibiting activity using UTI as a standard. The solution was then diluted to various concentration levels with 0.1% BSA/27 mM CaCl2 /133 mM Tris-HCl buffer (pH 7.5) for use in the activity measurement. The aforementioned AN68 was also diluted in the same manner for use as a control. Human elastase-inhibiting activities in the test samples and the control were measured in accordance with the method of Ogawa et al. (Ogawa, M. et al., Res. Commun. Chem. Pathol. Pharmacol., vol.55, pp.271-274, 1987) using a synthetic compound STANA (Peptide Institute Inc.) as a substrate.
Human neutrophil elastase (CALBIOCHEM) was dissolved in 27 mM CaCl2 /133 mM Tris-HCl buffer (pH 7.5) to a concentration of 100 μg/ml and the solution was further diluted with 0.1% BSA/27 mM CaCl2 /133 mM Tris-HCl buffer (pH 7.5) to prepare a 4 μg/ml elastase solution. 100 mM STANA solution was prepared by dissolving it in N-methyl-2-pyrrolidone and the solution was further diluted with 0.1% BSA/27 mM CaCl2 /133 mM Tris-HCl buffer (pH 7.5) to prepare a 20 mM STANA solution.
Next, 50 μl of the test sample or positive control was mixed with 50 μl of the elastase solution and 50 μl of 0.1% BSA/27 mM CACl2 /133 mM Tris-HCl buffer (pH 7.5). After incubation at 37° C. for 10 minutes, 50 μl of the STANA solution was added to the mixture to start the reaction. The reaction was carried out at 37° C. for 20 minutes and then stopped by adding 50 μl of 50% acetic acid solution to the reaction mixture. Thereafter, absorbance at a wavelength of 405 nm was measured using a spectrophotometer. In this instance, in order to eliminate absorbance of various solutions in the reaction product, a blank solution was prepared by mixing 50 μl of the elastase solution with 50 μl of 50% acetic acid and then with 50 μl of each test sample or the control, 50 μl of 0.1% BSA/27 mM CaCl2 /133 mM Tris-HCl buffer (pH 7.5) and with 50 μl of the STANA solution.
The results are shown in FIG. 54 and FIG. 55 and FIG. 67 to FIG. 69. In these figures, polypeptide concentration in the reaction solution is expressed as its bovine trypsin-inhibiting activity. Also, remaining human elastase activity was expressed by percentage based on the absorbance of a control reaction mixture in which 50 μl of the 0.1% BSA/27 mM CaCl2 /133 mM Tris-HCl buffer (pH 7.5) was used instead of the test sample or the control.
In the case of B1, the “elastase-inhibiting activity, times higher than that of polypeptide Q19K/Y46D” value is “about 3 times”.

For the molecule B2, the “elastase-inhibiting activity, times higher than that of polypeptide Q19K/Y46D” value is “about 2 times”.

B3: the “elastase-inhibiting activity, times higher than that of polypeptide Q19K/Y46D” value is reported as “about 5 times”.

As to B4, the “elastase-inhibiting activity, times higher than that of polypeptide Q19K/Y46D” value is reported as “about 3 times”.

With B5, the “elastase-inhibiting activity, times higher than that of polypeptide Q19K/Y46D” value is recorded as “about 10 times”.

For B6, the “elastase-inhibiting activity, times higher than that of polypeptide Q19K/Y46D” value is on record as “about 4 times”.

Staying with this assay, now noted: relative to Q19K/Y46E from E. coli JE5505(pM721).
Turning to B7, the “elastase-inhibiting activity, times higher than that of polypeptide Q19K/Y46E” value was determined as 6 times.

The assay is the same for the next values; noted with them: relative to control AN68.
As to B1, the “elastase-inhibiting activity, times higher than that of polypeptide AN68” value is on record as “about 3 times”.

Take B2: the “elastase-inhibiting activity, times higher than that of polypeptide AN68” value is reported as “about 2 times”.

In the case of B3, the “elastase-inhibiting activity, times higher than that of polypeptide AN68” value is “about 5 times”.

As to B7, the “elastase-inhibiting activity, times higher than that of polypeptide AN68” value was “about 5 times”.

In the case of B4, the “elastase-inhibiting activity, times higher than that of polypeptide AN68” value was “about 3 times”.

For the molecule B5, the “elastase-inhibiting activity, times higher than that of polypeptide AN68” value is “about 10 times”.

B6: the “elastase-inhibiting activity, times higher than that of polypeptide AN68” value is “about 4 times”.

The target in another assay is T2, human FXa (Homo sapiens, UniProt P00742).
T2 construct: purchased American Diagnostica Inc
T2 sequence (P00742 235-488 limits assumed): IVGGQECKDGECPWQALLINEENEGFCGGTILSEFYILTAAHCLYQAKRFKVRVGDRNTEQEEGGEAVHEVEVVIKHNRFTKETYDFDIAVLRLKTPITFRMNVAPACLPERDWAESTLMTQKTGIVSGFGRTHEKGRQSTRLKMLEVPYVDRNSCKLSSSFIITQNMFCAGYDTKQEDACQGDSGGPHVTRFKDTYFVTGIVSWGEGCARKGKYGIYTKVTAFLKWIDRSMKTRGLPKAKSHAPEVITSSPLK
T2 sequence (P00742 41-179 partner limits assumed): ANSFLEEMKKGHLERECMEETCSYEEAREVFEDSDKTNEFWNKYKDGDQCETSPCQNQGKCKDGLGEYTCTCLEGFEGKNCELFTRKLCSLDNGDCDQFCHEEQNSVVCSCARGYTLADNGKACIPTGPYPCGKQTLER
The experiment in a line: FXa-inhibiting activity (synthetic substrate S-2222). The assay is classed as biochemical. As to conditions: relative to control AN68; concentration expressed as bovine trypsin-inhibiting activity. As to the method: The purified polypeptide of the present invention was dissolved in 100 μl of distilled water. Polypeptide concentration of this solution was determined based on its bovine trypsin-inhibiting activity measured in accordance with the above procedure (1) using the aforementioned UTI as a standard. The thus prepared solution was then diluted to various concentration levels with 0.1% BSA/150 mM NaCl/5 mM CaCl2 /50 mM Tris-HCl buffer (pH 8.3) for use in the activity measurement. Separately from this, a polypeptide TN70 (cf. Japanese Patent Application No. 3-325220) and polypeptide AN68 were purified respectively in accordance with the procedure of Example 2(4) from a culture supernatant of E. coli JE5505(pM552) (deposit No., FERM BP-3561) and E. coli JE5505(pM594) obtained by transforming E. coli JE5505 with the aforementioned plasmid pM594 obtained in Example 4. The thus purified polypeptide TN70 and AN68 were diluted to various concentration levels to be used as control solutions.
Using a synthetic compound S-2222 (Daiichi Pure Chemicals Co., Ltd.) as a substrate, FXa-inhibiting activities in the thus prepared test sample solution and control solution were measured in accordance with the method of Ohno et al. (Ohno H. et al., Thromb. Res., vol.19, pp.579-588, 1980) as follows. First, human FXa (American Diagnostica Inc.) was dissolved in distilled water to a final concentration of 10 PEU/ml and the solution was further diluted with the aforementioned 0.1% BSA/150 mM NaCl/5 mM CaCl2 /50 mM Tris-HCl buffer (pH 8.3) to prepare 0.1 PEU/ml of FXa solution. Separately from this, a 4 mM solution of S-2222 was prepared by dissolving it in distilled water and the solution was further diluted with the 0.1% BSA/150 mM NaCl/5 mM CaCl2 /50 mM Tris-HCl buffer (pH 8.3) to obtain a 2 mM solution of S-2222.
Next, 25 μl of the test sample or control solution was mixed with 100 μl of the 0.1% BSA/150 mM NaCl/5 mM CaCl2 /50 mM Tris-HCl buffer (pH 8.3) and 25 μl of the FXa solution. After incubating statically at 37° C. for 10 minutes, 100 μl of the S-2222 solution was added to start the reaction. The reaction was carried out at 37° C. for 30 minutes and then stopped by adding 50 μl of 50% acetic acid solution to the reaction mixture. Thereafter, absorbance at a wavelength of 405 nm was measured using a spectrophotometer. In this instance, in order to eliminate absorbancy of various contents in the reaction mixture other than the reaction product, a blank solution was prepared by mixing 25 μl of the FXa solution with 50 μl of 50% acetic acid and then with 25 μl of each test sample or the control solution, 100 μl of the 0.1% BSA/150 mM NaCl/5 mM CaCl2 /50 mM Tris-HCl buffer (pH 8.3) and with 100 μl of the S-2222 solution.
The results are shown in FIG. 45 to FIG. 53 and FIG. 66. In these figures, polypeptide concentration in the reaction solution was expressed as its bovine trypsin-inhibiting activity. Also, residual human FXa activity was expressed by percentage based on the absorbance of a control reaction mixture in which 25 μl of the 0.1% BSA/150 mM NaCl/5 mM CaCl2 /50 mM Tris-HCl buffer (pH 8.3) was used instead of the test sample.
In the case of B1, the “FXa-inhibiting activity, times higher than that of polypeptide AN68” value (shortened to “FXa-inhibiting activity”) is reported as “about twenty”.

As for B2, the “FXa-inhibiting activity” value was “about 16 times”.

Turning to B3, the “FXa-inhibiting activity” value is “about 10 times”.

B7: the “FXa-inhibiting activity” value is listed as “about 13 times”.

B4: the “FXa-inhibiting activity” value was “about 5 times”.

For B5, the “FXa-inhibiting activity” value is reported as “about 8 times”.

On to B6, for which the “FXa-inhibiting activity” value is on record as “about 9 times”.

For the origin of these results see patent US5679770A, “Polypeptide, DNA fragment encoding the same, drug composition containing the same and process for producing the same” (Mochida Pharmaceutical Co., Ltd., priority 1991, dated 1997).
